Experiments:
[1] = test system: K. pneumoniae; assay: Lethal bacteremia model (K. pneumoniae 5×10^3 CFU/mouse), survival; assay type: in vivo, Male FVB mice; conditions: single i.v. dose 10 mg/kg; K. pneumoniae 5×10^3 CFU
Experimental: (§1) Male FVB mice (8-10 weeks old) were used to model sepsis in vivo. The Institutional Animal Care and Use Committee of the National Cheng Kung University approved procedures. In the chronic endotoxemia model, various concentrations of rTMD1 or rTMD proteins in equi-molar amounts were administrated by tail intravenous (i.v.) injection and LPS (20 mg/kg) or K. pneumoniae (5×10^2 CFU/mouse, BCRC) was administrated by intraperitoneal (i.p.) injection. After 6 or 12 hours, mice were sacrificed by pentobarbital anesthesia (50 mg/kg; i.p.). […] The half-life of rTMD1 in the circulation was determined by i.v. injection of rTMD1 (10 mg/kg, equals 436.64 nmole/kg) and serum samples were collected at various time intervals. The levels of rTMD1 in the collected sera were determined by a sandwich ELISA which employed anti-c-Myc monoclonal antibody and TM-H300 as capture and detection antibodies (both from Santa Cruz Biotechnology), respectively. […] Mortality was monitored every 6-12 hours until all mice in either experimental group died. […] Serum samples were collected at various time intervals and the amount of LPS was determined by Limulus amebocyte lysate test (Associates of Cape Cod, E. Falmouth, Mass.). […] Outgrowth of K. pneumoniae was quantified by plating serial dilutions of blood samples on blood agar plates and enumerating colonies after overnight incubation at 37° C.

[2] = test system: K. pneumoniae; assay: K. pneumoniae clearance in circulation (viable CFU counts in blood); assay type: in vivo, male FVB mice
Experimental: as §1

[3] = test system: THP-1 cells; assay: THP-1 phagocytosis assay with FITC-labeled K. pneumoniae; assay type: cell-based, Human; conditions: activated THP-1 cells
Experimental: Human leukemia monocytic THP-1 cells and murine macrophage cell line RAW 264.7 were obtained from the American Type Culture Collection. THP-1 cells were grown in suspension in RPMI-1640 supplemented with 10 mM HEPES, 1 mM sodium pyruvate, 0.1% β-mercaptoethanol, 100 U/ml penicillin, 100 µg/ml streptomycin, and 10% fetal bovine serum (FBS). RAW 264.7 cells were grown as an adhered layer in Dulbecco's modified Eagle's medium with 4 mM L-glutamine adjusted to contain 1.5 g/l sodium bicarbonate and 4.5 g/l glucose, 100 U/ml penicillin, […] streptomycin, and 10% FBS under a humidified 5% CO2 atmosphere at 37° C. For differentiation, THP-1 cells were plated in medium containing 10 nM PMA and allowed to adhere for 18 h.
FITC-labeled K. pneumoniae (1×10^5 CFU/well) were pre-incubated with rTMD1 at 37° C. for 30 minutes before adding to differentiated THP-1 cells. After incubation for 2 hours the THP-1 cells were washed twice with ice-cold PBS prior to fluorescence microscopy, or were further trypsinized, resuspended in PBS, and analyzed in a fluorescence-activated cell sorter (FACS; Becton Dickinson, San Jose, Calif.) to measure THP-1 cell intracellular fluorescence. Green fluorescence data from 10,000 events (cells) per condition collected at 530 nm on a log scale were analyzed with CellQuest™ software (Becton Dickinson).

[4] = Chronic endotoxemia model (LPS 20 mg/kg i.p.) in mice; assay type: in vivo, Male FVB mice
Experimental: TNF-α in conditioned medium or mouse serum was measured by an enzyme-linked immunosorbent assay (ELISA) (R&D Systems, Minneapolis, Minn.). Accumulation of nitrite in the medium or mouse serum was determined by a colorimetric assay using Griess reagent (Sigma-Aldrich). Blood urea nitrogen (BUN) and creatinine were measured with a Roche D&P modular (Roche Diagnostic Systems, Branchburg, N.J.). Assays were performed according to the manufacturer's protocol.
Male FVB mice (8-10 weeks old) were used to model sepsis in vivo. The Institutional Animal Care and Use Committee of the National Cheng Kung University approved procedures. In the chronic endotoxemia model, various concentrations of rTMD1 or rTMD proteins in equi-molar amounts were administrated by tail intravenous (i.v.) injection and LPS (20 mg/kg) or K. pneumoniae (5×10^2 CFU/mouse, BCRC) was administrated by intraperitoneal (i.p.) injection. After 6 or 12 hours, mice were sacrificed by pentobarbital anesthesia (50 mg/kg; i.p.). Sera were collected and assayed for TNF-α, NO, BUN, and creatinine, and lung and kidney tissues were removed, fixed with formalin, and embedded in paraffin for histochemical examination. In the lethal sepsis model, rTMD1 (2 mg/kg, equals 87.3 nmole/kg) was i.v.-administrated at 0, 6, 12, and 24 hours after i.p. administration of LPS (40 mg/kg). The half-life of rTMD1 in the circulation was determined by i.v. injection of rTMD1 (10 mg/kg, equals 436.64 nmole/kg) and serum samples were collected at various time intervals. The levels of rTMD1 in the collected sera were determined by a sandwich ELISA which employed anti-c-Myc monoclonal antibody and TM-H300 as capture and detection antibodies (both from Santa Cruz Biotechnology), respectively. For the lethal bacteremia model, rTMD1 (10 mg/kg) was administrated prior to i.p. injection of K. pneumoniae (5×10^3 CFU/mouse). Mortality was monitored every 6-12 hours until all mice in either experimental group died. Experimental procedure of determining LPS half-life is as following. LPS (20 mg/kg) was i.p.-administrated to male FVB mice without or with rTMD1 (10 mg/kg; i.v.). Serum samples were collected at various time intervals and the amount of LPS was determined by Limulus amebocyte lysate test (Associates of Cape Cod, E. Falmouth, Mass.). A further experiment was performed to determine whether rTMD1 affects bacterial clearance. K. pneumoniae (5×10^2 CFU/mouse) was i.p.-administrated to male FVB mice without or with rTMD1 (10 mg/kg; i.v.), and blood samples were collected at various time intervals. Outgrowth of K. pneumoniae was quantified by plating serial dilutions of blood samples on blood agar plates and enumerating colonies after overnight incubation at 37° C.

[5] = test system: RAW 264.7 cells; assay: Western blotting of LPS-induced signaling pathways in RAW 264.7 cells; assay type: cell-based, murine
Experimental: rTMD1 (0-50 μg/mL, equals 0-2.18 nmole/mL) pre-incubated without or with Escherichia coli (E. coli) LPS (LPS O111:B4, Sigma-Aldrich) in the absence or presence of Lewis Y (Le^y; Dextra Laboratories, Reading, UK) for 30 minutes was used to stimulate THP-1 or RAW 264.7 cells. Incubation period included 15 minutes for pIκB and IκB (B-9 and C-21, Santa Cruz Biotechnology, Santa Cruz, Calif., unless otherwise noted), 20 minutes for p38 (C-20) and pp38 (D-8), 30 minutes for ERK1/2 (K-23), pERK1/2 (E-4), lamin B2 (E-3, Zymed Laboratories, San Francisco, Calif.), NF-κB p50 (C-19) and NF-κB p65 nuclear translocation (C-20), and 24 hours for iNOS expression using a specific antibody (N-20).

[6] = test system: K. pneumoniae; assay: Bacterial agglutination, FITC-labeled K. pneumoniae; conditions: 20 μg/mL protein, 5 mM CaCl2
Experimental: K. pneumoniae and E. coli DH5α (BCRC) were washed twice in 0.1 M sodium bicarbonate buffer (pH 9.6) and incubated with 0.1 mg/mL fluorescein isothiocyanate (FITC) at 37° C. in the dark. Each of 20 μg/mL of rTMD1, non-tagged rTMD1, mammalian rTMD1, and recombinant TM domains 2 and 3 (rTMD23) was co-incubated with FITC-labeled bacteria (1×10^5CFU/mL) in buffer (20 mM Tris, pH 7.4, 0.15 M NaCl, 5 mM CaCl2, 1 mg/mL BSA) with or without 0.2 M mannose or 5 mM EDTA. Samples were individually placed on a glass slide and fluorescently-labeled bacteria were observed microscopically to evaluate agglutination.

[7] = 12 hours after LPS, compared with LPS-treated mice
[8] = rTMD1 1-5 mg/kg i.v., 6 hours after LPS 20 mg/kg i.p.

B1: rTMD1: recombinant human thrombomodulin N-terminal lectin-like domain (residues Ala1-Ala155) with 6×His tag and c-Myc epitope, Pichia pastoris expressed (protein)
chain: EFAPAEPQPGGSQCVEHDCFALYPGPATFLNASQICDGLRGHLMTVRSSVAADVISLLLNGDGGVGRRRLWIGLQLPPGCGDPKRLGPLRGFQWVTGDNNTSYSRWARLDLNGAPLCGPLCVAVSAAEATVPSEPIWEEQQCEVKADGFLCEFHFPAYLEDDDDKIEQKLISEEDLNSAVDHHHHHH
modifications: left off: small tags and cut ends
mice surviving more than 24 hours [1]: 50% | K. pneumoniae clearance in circulation, post-treatment ([2]; 12, 24, 36 hours after infection, rTMD1 given up to 30 or 60 minutes after infection): enhance | K. pneumoniae clearance in circulation ([2]; 12, 24, and 36 hours after injection, rTMD1 10 mg/kg i.v., 5×10^2 CFU): significantly enhanced | bacterial phagocytosis by THP-1 cells [3]: markedly increased | pulmonary accumulation of PMNs / LPS-induced inflammatory responses ([4]; 6 hours after LPS administration (FIG. 2C-D)): significantly inhibited | BUN level [4, 7]: markedly reduced | serum creatinine level [4, 7]: markedly reduced | extent of glomerulonephritis ([4]; kidney, 12 hours after LPS 20 mg/kg (FIG. 2E)): significantly reduced | NO levels in mice [4, 8]: significantly decreasing levels | TNF-α levels in mice [4, 8]: significantly decreasing levels | LPS-induced nuclear translocation of NF-κB ([5]; FIG. 1E): inhibited in a dose-dependent fashion | LPS-induced phosphorylation of ERK1/2 and p38 ([5]; FIG. 1F): inhibited | LPS-induced phosphorylation and degradation of IκBα ([5]; LPS 100 ng/mL, rTMD1 50 μg/mL (2.18 nmole/mL)): totally reversed | iNOS induction by LPS ([5]; RAW 264.7 cells, FIG. 1G): inhibited | agglutination of K. pneumoniae [6]: induced marked agglutination

Source: US20120165244A1, “METHODS FOR BINDING LEWIS Y ANTIGEN” (priority 2008, published 2012)
